Measured values: patent US20250319129A1
Like-named read-outs stand apart in the source and are kept apart here.

Tests used:
Experiment in all cases: cell-based or functional assay
[1] = target: CLDN18.1 (human) (UniProt P56856)
[2] = target: CLDN18.2 (human), P56856
[3] = target: CLDN18.2 (human), P56856; remark: listed apart in the source

B1: 21011 chimeric antigen receptor (on CAR-T cells) (protein, part only; not given: hinge, transmembrane and signalling parts, part only)
chain, part: EVQLVESGGGLVQPGGSLRLSCAASGSIFSVNGIMWYRQAPGKQRELVAARYTGSVIDSGKTGTGRFTISRDNAKNTLYLQMNSLRAEDTAVYYCNAPTAALTRVEWDVYSLWGQGTLVTVSS
[1]
  cytokine secretion (IFN-γ): < 100 µg/mL

B2: 21050 chimeric antigen receptor (on CAR-T cells) (protein, part only; not given: hinge, transmembrane and signalling parts, part only)
chain, part: QVQLQQPGAELVRPGASVKLSCKASGYTFTSYWINWVKQRPGQGLEWIGNIYPSDSYTNYNQKFKDKATLTVDKSSSTAYMQLSSPTSEDSAVYYCTRSWRGNSFDYWGQGTTLTVSSGGGGSGGGGSGGGGSDIVMTQSPSSLTVTAGEKVTMSCKSSQSLLNSGNQKNYLTWYQQKPGQPPKLLIYWASTRESGVPDRFTGSGSGTDFTLTISSVQAEDLAVYYCQNDYSYPFTFGSGTKLEIK
[1]
  cytokine secretion (IFN-γ): < 100 µg/mL

B3: 21009 chimeric antigen receptor (on CAR-T cells) (protein, part only; not given: hinge, transmembrane and signalling parts, part only)
chain, part: EVQVVESGGGLVQPGGSLRLSCAASGNIFRTDIGMWYRQAPGKGRELVAGTTTGRSGYVDKASIGRFTISRDNAKNTMYLQMNSLRAEDTAVYYCNAYGVWEQTPFDALRWGQGTLVTVSS
[1]
  cytokine secretion (IFN-γ): < 100 µg/mL

B4: 21047 chimeric antigen receptor (on CAR-T cells) (protein)
chain: QVQLVESGGGLVQPGGSLRLSCAASGSIFNIPVMGWYRQAPGKQRELVAGISTGGTTNYGDSVKGRFTISRDNAKNTVYLQMNSLKPEDTAVYYCNVLVVSGIGSTLEVWGQGTLVTVSSIEVMYPPPYLDNEKSNGTIIHVKGKHLCPSPLFPGPSKPFWVLVVVGGVLACYSLLVTVAFIIFWVRSKRSRLLHSDYMNMTPRRPGPTRKHYQPYAPPRDFAAYRSRVKFSRSADAPAYQQGQNQLYNELNLGRREEYDVLDKRRGRDPEMGGKPRRKNPQEGLYNELQKDKMAEAYSEIGMKGERRRGKGHDGLYQGLSTATKDTYDALHMQALPPR
[2]
  IFN-γ secretion levels: > 5000 pg/mL
[3]
  IFN-γ secretion levels: > 10000 pg/mL
